The DeepSol protein solubility set

Assay: soluble on expression in E. coli; label from the status in PepcDB or PDB records

| Sequence | soluble on expression in E. coli |
| --- | --- |
| MSLSWLGNDDRRKKDPEVFQTVSDGLKKLYKTKLLPLEEYYRFHEFHSPALEDADFDNKPMVLLVGQYSTGKTTFIRYLLEQDFPGMRIGPEPTTDSFIAVMQGDVEGIIPGNALVVDPKKPFRKLNAFGNAFLNRFVCAQLPNAVLESISVIDTPGILSGEKQRISRGYDFAAVLEWFAERVDRIILLFDAHKLDISDEFSEVIKALKNHEDKMRVVLNKADQIETQQLMRVYGALMWSLGKIVNTPEVIRVYIGSFWSHPLLIPDNRKLFEAEEQDLFRDIQSLPRNAALRKLNDLIKRARLAKVHAYIISSLKKEMPSVFGKDTKKKELVNNLAEIYGRIEREHQISPGDFPNLKKMQDQLQAQDFSKFQPLKSKLLEVVDDMLAHDIAQLMVLVRQEETQRPVQMVKGGAFEGTLQGPFGHGYGEGAGEGIDDAEWVVARDKPMYDEIFYTLSPVDGKITGANAKKEMVRSKLPNSVLGKIWKLADIDKDGMLDDEEFALANHLIKVKLEGHELPSELPAHLLPPYKRKVSEGHHHHHH | soluble |
| MPTYPPSLLQSLLQYIPERELAWDCGAGSGQLTHMLASYFDQVVGTDISQTQLSHAEYYDNISYQLQPAENTTFPDHCFDLITVAQAIHWFDFEAFYAEVRRTIKPSGILAVVGYGLIHVDDLEINAKVQHLYHQTLNGFWDAERHYVDELYQTIPFPFDEIEMPAFQIEAQWTLQQLLQYLNTWSAVQHYILEKNLDPVQQLLSKGLEHHHHHH | not soluble |
| MGSDKIHHHHHHMYHEFTPCAALVPFIDKFWVFKGFTDIGTRFKILADGCTDFIFSIGNMTVPTDEHSMIMQPYRSFFVGPMRSYSNLTATTDSLHMLGVRFQPCGLAAFTNEPLGQFADLRIQSSDINLLFDNSFAEMLCEQPDDSVRIRIIEGYLIRLLTQSIQVDRQIIYATSFIKQSYGQLPVQNLIDKICICQRHFQRKFKDATGYTPKEFSRIIKFQYAIEVLRNAPHTDLSSIALDCGYYDHSHFIKEFKRLAGDVPSYFLTLPNPADEPLTYI | not soluble |
| MLEIKRYKNRVASRKCRAKFKQLLQHYREVAAAKSSENDRLRLLLKQMCPSLDVDSIIPRTPD | soluble |
| MGSDKIHHHHHHMITYFELKNFRSFSNITLDLRKAYGKPKKVVFIYGENGSGKSNLMSSFLFLLQTLNTFKNQVELKDMPEYKSNLFESIKDDKIRHQLLQQILHMQFITLSNLIDEYKMLGNEKNMSTKFGFRIEESDGSYFMEFSKDKIIKEELRYQINEREGTVFSISKNQITLSPTVFLDLDYKKELQDNIEKYWGKHTFMAILCNEIETKNSNYIKAKINKNLLNVIWEMRGLSVWCKECHGETARISIPLKFMRQLDEGSVKDQNNKELKLCETALNTFFTQLYSDIKAVHYVFTPNENDYSYELCFKKLIDGKLIDIPISLESTGTRKLLEIFPMLFGSVAGTPVFVDEIDSGIHDVLMKNLLERLLESIEGQLIATTHNTLLMESLPTENTYIIRVNATGNKSIDCVANYRQRTQKTNSMRNKYLRGDYDGIPYTGYFDFQELVEDVLDNIPSSDNEDGDEA | not soluble |
| DLAKELFTHKGSGTLIRRGERVIRATTWKDLDLPRLQHLIQSSFRRTLIPHYFETTPLLRAYVSENYRAAVILTKLGNVPYLDKFAVLDDAQGEGLGRAVWSIMREETPQLFWRSRHNNQANAFYYAESDGYYKQDHWKIFWNGLHHFQQIQQCVAHCTQH | not soluble |
| MGVFAQNLKFGHINAQEIVSAMPEFAKAQSDIEALDKQLTSELQRTQEEFNKKYQEFQQAIAKDSLPANIAERRQKELQDMMQRQEQFQQEAQQQMQKAQADAMAPIYKKLDDAIKAVGAAEGVIYIFDLARTPVAYVNESQSINLTPKVKTQLGIK | not soluble |
| MLTPPPDSKISTTDKSLDKLSAPLDMLKQMNESTMEQTKLDELRKKMSLQAEILNKAKADNDMFFRLLIELMSLKLQGELFKEQLSKISKESGYDSAQSALIQATNSEGQSPLQYALQKQDFSTAKYFLDNGAKAGPIEKAVFEIALDSKAAKEFGFPPLPPEKEKLHPVKNFGLVLGIKTTSVDGTPSQFGHIAPTYQLMTDSVSHFAKSHPGNKNFQEIANAFQFSNEASAFKFSTPQRNPEAGNDLARRIQGGELTTIPVSCKGHAMGLSYVPDGPGSKSGYLVYTNRGLGAKSSEHGTHIFRIEDSSKITPEFINNMTSGHSNGASHDEIMSQIKAAAGNKEPIHHIKQKGQKNDNCTIANSKSNIEGILLCQKAREVGGFDKLTESDMDSVKKEYKEFTKHMRVEKVNELAKALKENPQDPDLNNLTKEYLKQHPNADPKLKQTLETALKQASESSMTLSQPGKTI | not soluble |
